{"source": "patent US20220174981A1", "about": "“PROLINE TOLERANT TRIPEPTIDYL PEPTIDASES AND USES THEREOF” (DuPont Nutrition Biosciences APS, priority 2014, published 2022)", "molecules": {"B1": {"name": "TRI071: Proline tolerant tripeptidyl peptidase TRI071 (SEQ ID No. 12 or SEQ ID No. 39) (protein, listed as Fusarium oxysporum)", "chain 1": "KSFSHHAEAPQGWQVQKTAKVASNTQHVFSLALTMQNVDQLESKLLDLSSPDSANYGNWLSHDELTSTFSPSKEAVASVTKWLKSKGIKHYKVNGAFIDFAADVEKANTLLGGDYQYYTKDGQTKLRTLSYSIPDDVAGHVQFVDPSTNFGGTVAFNPVPHPSRTLQERKVSPSKSTVDASCQTSITPSCLKQMYNIGDYTPDAKSGSEIGFSSFLGQAAIYSDVFKFEELFGIPKQNYTTILINNGTDDQNTAHGNFGEANLDAENIVGIAHPLPFKQYITGGSPPFVPNIDQPTEKDNQNEPYVPFFRYLLGQKDLPAVISTSYGDEEDSVPREYATLTCNMIGLLGLRGISVIFSSGDIGVGSGCLAPDYKTVEFNAIFPATCPYLTSVGGTVDVTPEIAWEGSSGGFSKYFPRPSYQDKAIKKYMKTVSKETKKYYGPYTNWEGRGFPDVAGHSVAPDYEVIYNGKQARSGGTSAAAPVWAAIVGLLNDARFKAGKKSLGWLNPLIYKHGPKVLTDITGGYAIGCDGNNTQSGKPEPAGSGLVPGARWNATAGWDPTTGYGTPNFQKLKDLVLSL", "chain 2": "CQTSITPSCLKQMYNIGDYTPDAKSGSEIGFSSFLGQAAIYSDVFKFEELFGIPKQNYTTILINNGTDDQNTAHGNFGEANLDAENIVGIAHPLPFKQYITGGSPPFVPNIDQPTEKDNQNEPYVPFFRYLLGQKDLPAVISTSYGDEEDSVPREYATLTCNMIGLLGLRGISVIFSSGDIGVGSGCLAPDYKTVEFNAIFPATCPYLTSVGGTVDVTPEIAWEGSSGGFSKYFPRPSYQDKAIKKYMKTVSKETKKYYGPYTNWEGRGFPDVAGHSVAPDYEVIYNGKQARSGGTSAAAPVWAAIVGLLNDARFKAGKKSLGWLNPLIYKHGPKVLTDITGGYAIGCDGNNTQSGKPEPAGSGLVPGARWNATAGWDPTTGYGTPNFQKLKDLVLS"}}, "key": {"[1]": {"target": "proline tolerant tripeptidyl peptidase (TRI083)", "test": "Product inhibition of TRI083 (Ala-Ala-Ala-pNA substrate)", "type": "biochemical, T. reesei", "conditions": "treated as competitive inhibitors", "description": "For proline tolerant tripeptidyl peptidase the chromogenic peptide H-Ala-Ala-Ala-pNA was used. The assay was conducted as follows, 27.5 μL of appropriately diluted enzyme was added to 200 μl McIlvaine buffer (20 mM, pH 4.0). After incubation at 50° C. for 5 min, 12.5 μL of the chromogenic peptide solution (5 mg/mL dissolved in dimethyl sulfoxide (DMSO); Sigma-Aldrich, Denmark) were added to the reaction mixture. The reaction was terminated by adding 50 μL of 0.5 M trichloroacetic acid (TCA; Sigma-Aldrich, Denmark). After centrifugation (15,000×g, 5 min), 240 μL of the solution were transferred to a microtiter plate (MTP; Kisker-biotech, Germany) and the absorption was measured in an MTP reader (Molecular Devices, Denmark) at 405 nm. One katal of proteolytic activity was defined as the amount of enzyme required to release 1 mol of p-nitroaniline per second.\nInhibition experiments were conducted with TRI083 and Ala-Ala-Ala-pNA ([…]) as substrate in the assay described in Example 8. The assay was run without inhibitor, with 3.6 mM tripeptide (H-Ala-Ala-Ala-OH; Bachem, Switzerland), 18 mM dipeptide (H-Ala-Ala-OH; Bachem, Switzerland) or 18 mM alanine (Sigma-Aldrich, Denmark). […]\nSubsequently, TRI083 was analyzed for product inhibition without inhibitor, with 1 mg/mL H-Ala-Ala-Ala-OH as well with the PepN pre-hydrolyzed H-Ala-Ala-Ala-OH (1 mg/mL)."}, "H-Ala-Ala-Phe-pNA": {"tested_on": "H-Ala-Ala-Phe-pNA", "test": "Low pH stability of tripeptidyl peptidases (pH 2.5, 40° C., 60 min), activity on H-Ala-Ala-Phe-pNA", "type": "biochemical", "conditions": "for OD410nm (Final): after pH 2.5, 40° C., 60 min; for OD410nm (Initial): without incubation at 40° C. for 60 min", "description": "As requirements for utilization of the enzymes in feed for monogastric animals, the enzymes should be active at lower pH. For this reason the number of tripeptidyl peptidases has been tested with the reaction on synthetic substrate AAF (H-Ala-Ala-Phe-pNA. BACHEM, L-1095), at pH 2.5.\nThe tripeptide substrate AAF was prepared at 2.5 mg/ml in DMSO. Tripeptidyl peptidases were used as broth. The reaction mixture containing 2.5 μl enzyme and 90 μL glycine acetic acid-Tris buffer (each buffer components at 50 mM, pH 2.5) was prepared in 96 well incubation plates.\nThe incubation plate was mixed and incubated at 40° C. for 60 min. Then 50 μl 0.2M Mes-NaOH pH6.0 was added to each well, mixed at 600 rpm for 2 min. After that, 5 ul of the incubation mixture were taken to 96 well assay plate already filled with 85 μl 0.1M acetic acid buffer, pH4.0 and 5 μl 2.5 mg/ml AAF substrate solution.\nThe reaction mixture was stirred at 600 rpm for 2 min and read directly in a microplate reader (Molecular Devices, Denmark) at 410 nm at 30° C. every 30 second for 15 min.\nTo measure initial enzyme activity, similar procedure was performed except the step of enzyme incubation at 40° C. for 60 min."}, "[2]": {"tested_on": "whey protein isolate (WPI)", "test": "15% WPI hydrolysis with endopeptidase and proline tolerant tripeptidyl peptidase homologues", "type": "biochemical", "conditions": "after 7 h of hydrolysis, compared to the reference (endopeptidase); FIG. 14", "description": "For WPI hydrolysis, Lacprodan-9224 (Arla Food Ingredients, Denmark) was employed, a 15% (w/w) WPI suspension was prepared in H2Od and adjusted to pH 4.5 with acetic acid (Sigma-Aldrich, Denmark). To prevent microbial growth, 0.0285% (w/w) NaN3 was added. Subsequently, 1% (w/w) Alphalase® FP2 was added and a volume of 200 μl of the WPI suspension was transferred into each of the 96 wells of a microtiter plate (MTP; VWR, Denmark). Following this, 5 μl of each proline tolerant tripeptidyl peptidase homologue containing either 0 or 4375nkatH-Ala-Ala-Ala-pNA/mL were added to the particular wells of the MTP. Then, the MTP was sealed and placed in an incubator at 40° C. (iEMS incubator/shaker HT, Thermo Scientific, Denmark).\n[…] Unhydrolyzed, precipitated WPI was removed by filtration (0.22 μm; Corning 3504 filter plate, Corning Incorporated, USA). The filtered WPI hydrolysate was employed for o-phthaldehyde (OPA) derivatization (Nielsen, Petersen et al. 2001). The OPA derivatization was conducted according to Nielsen et al., (2001) with minor modifications. A sample volume of 25 μl was transferred to a well and 175 μl of OPA-reagent, dissolved in trisodium phosphate-dodecahydrate, was added subsequently. The measured absorptions at 340 nm in a MTP reader (VersaMax, Molecular Devices, Denmark) were transformed into serine equivalents employing a serine calibration curve (0-2 mM)."}, "[3]": {"conditions": "listed as TRI071 (pool1) 2% glu/soph"}, "[4]": {"conditions": "listed as TRI071 (pool1) 4% glu/soph"}}, "note": "Several values for one entry are separate records, joined by “and”; a condition that tells them apart may be missing. Equal values may be shown once."}
{"molecule": "C[C@H](N)C(=O)O", "note": "[Alanine, alanine]", "values": [{"measurement": "Ki", "setting": "[1]", "result": "no inhibition at all"}]}
{"molecule": "B1", "values": [{"measurement": "OD410nm (Final)", "setting": "H-Ala-Ala-Phe-pNA; [3]", "result": "0.589 and 0.672"}, {"measurement": "OD410nm (Final)", "setting": "H-Ala-Ala-Phe-pNA; [4]", "result": "0.453 and 0.6"}, {"measurement": "OD410nm (Initial)", "setting": "H-Ala-Ala-Phe-pNA; [3]", "result": "0.757 and 0.815"}, {"measurement": "OD410nm (Initial)", "setting": "H-Ala-Ala-Phe-pNA; [4]", "result": "0.466 and 0.67"}, {"measurement": "relative increase of SE", "setting": "[2]", "result": "about 64%"}]}
